According to the supplement of paper PMC10724198:
± gives the standard deviation of the averaged measurements.

What follows are sequences tested on Saccharomyces cerevisiae (assay: protein stability index of tFT-peptide fusion (C-terminal peptide) (PSI (0-1 scale)); higher = more stable (slower turnover)). Conditions: genetic background: wild type; temperature: 30 C.
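Note: PSI is a weighted mean of sequencing reads over stability bins, variants kept only with over 10 reads, mCherry proximal and sfGFP distal, peptide attached via GGGS linker.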

In order of falling protein stability index:
1. RRLRWQNKIIGI  0.868 ± 0.13
2. RGGGLGGLRSRA  0.823 ± 0.081
3. RSRGSTKLKNLI  0.817 ± 0.056
4. RRAVLDSPSRRY  0.786 ± 0.031
5. RLTRRSCLFSIT  0.785 ± 0.056
6. RKRKEKSLKAKL  0.784 ± 0.084
7. RLDDFSALPPRY  0.781 ± 0.064
8. RRNESHAGGRGP  0.778 ± 0.07
9. RGPSSPTPRPAA  0.77 ± 0.13
10. RSCAGGVGAVFF  0.758 ± 0.055
11. RGLRRIPDAPPH  0.757 ± 0.028
12. RPPPPSPRPTRR  0.755 ± 0.032
13. RKRIPSITLPPP  0.754 ± 0.063
14. RGSPFTAWSVLR  0.753 ± 0.019
15. RPTTPKCSSPKP  0.753 ± 0.11
16. RRVDVRKGRLTP  0.753 ± 0.096
17. RKQNVASESERK  0.752 ± 0.094
18. RPDSGFPLRGSS  0.75 ± 0.098
19. RPTLPGGSPYYS  0.75 ± 0.05
20. RGFSLSCCERSI  0.749 ± 0.026
21. RGVWWWWGVAGA  0.749 ± 0.17
22. RKKNEKKEDNKK  0.747 ± 0.12
23. RSPPPFLSIFPL  0.745 ± 0.01
24. RQSREGKANRRW  0.742 ± 0.049
25. RPRLQNLSRSNV  0.74 ± 0.074
26. RNVFVPFMRGSP  0.737 ± 0.077
27. RLRPRHPRLLRS  0.735 ± 0.034
28. RPGWSRGREAVA  0.735 ± 0.14
29. RKQRAGRRKDKQ  0.734 ± 0.043
30. RRSASRQFLLNP  0.73264 ± 0.00024
31. RGRGRGGPLSGG  0.731 ± 0.017
32. RRRGTYTYSLLL  0.73 ± 0.014
33. RLPAVPSHPGLL  0.729 ± 0.037
34. RMKKKKNKARDI  0.729 ± 0.045
35. RPSLPPSPLLRP  0.729 ± 0.0049
36. RSRRPALVLSGN  0.729 ± 0.011
37. RGRWVDWLSFTF  0.7278 ± 0.0022
38. RGLSCAAYFSGA  0.727 ± 0.028
39. RLDFFIFSRWWI  0.727 ± 0.031
40. RPVSALESPQAG  0.727 ± 0.059
41. RRRKGTKNMQSK  0.727 ± 0.061
42. RRVRTTKKGLTI  0.7266 ± 0.0036
43. RKNGEDLKKRGT  0.726 ± 0.077
44. RPAFPIPSLYPS  0.725 ± 0.11
45. RLHAILKRSGLE  0.722 ± 0.068
46. RHRFDHWGPGPW  0.72 ± 0.055
47. RLHCEGCDPGSL  0.7189 ± 0.0015
48. RRRPSPKASILS  0.719 ± 0.011
49. RGRGRISGSWGT  0.718 ± 0.013
50. RPPPLLSPPSPP  0.718 ± 0.026
51. RGRQRSDPPTRL  0.717 ± 0.061
52. RLPFLPPPPCPP  0.716 ± 0.046
53. RPLLVPVSSTPP  0.716 ± 0.045
54. RNCSSALPPPPS  0.7154 ± 0.0028
55. RQLSSFSDRSGS  0.715 ± 0.022
56. RSPKGKKRVGKW  0.714 ± 0.039
57. RLLVGFLSPFSC  0.713 ± 0.031
58. RLRCRYLSSTYY  0.712 ± 0.0078
59. RRSENHTEHKGD  0.712 ± 0.032
60. RLFASNPALSNL  0.709 ± 0.027
61. RLIDMNFPVKKE  0.709 ± 0.04
62. RSGGDGCRALSV  0.708 ± 0.064
63. RQVSRLFQGKKN  0.707 ± 0.03
64. RSRKKKERWKTE  0.707 ± 0.015
65. RKQQGDNHKGRG  0.706 ± 0.14
66. RLRDMPRDLTFW  0.706 ± 0.12
67. RGASDYARMSAF  0.7047 ± 0.0037
68. RMDIRVWATFCG  0.705 ± 0.11
69. RMRTGTKCLSAG  0.705 ± 0.17
70. RRAGHYHYSVRL  0.704 ± 0.053
71. RGSRFVAGGGSV  0.702 ± 0.038
72. RILSCGCVCFVM  0.702 ± 0.031
73. RPNQNAFACMSP  0.702 ± 0.026
74. RPVPPPLPSPPP  0.702 ± 0.016
75. RLFSAWGCGLPL  0.7 ± 0.019
76. RPFSAPLCLLPS  0.7 ± 0.024
77. RPFSMGSNNIIR  0.7 ± 0.022
78. RRSVSSRGCLFR  0.7 ± 0.008
79. RSGSVGGMECHV  0.7 ± 0.18
80. RSFGRVVSCSGC  0.6993 ± 0.0056
81. RGRLVVGAGRED  0.697 ± 0.049
82. RRTGTFSGLAGL  0.696 ± 0.0071
83. RITSSLCPPLLR  0.695 ± 0.013
84. RSSCVRGVTLAL  0.695 ± 0.023
85. RLGGRDCWGPWG  0.693 ± 0.017
86. RLLPAPPPPTRP  0.693 ± 0.036
87. RPSTRARPKPTP  0.693 ± 0.0086
88. RPLYPGSKVQLL  0.691 ± 0.024
89. RPPSPPLPPPLS  0.6906 ± 0.0013
90. RRTYERRVATSR  0.691 ± 0.031
91. RHGRDNPSGRLN  0.6902 ± 0.0046
92. RNNKLGIRKSFL  0.69 ± 0.035
93. RGDGVRGGKNGR  0.689 ± 0.034
94. RGWKDQYIDADR  0.689 ± 0.012
95. RISWLKEATAIK  0.689 ± 0.019
96. RGGWGGGDCVGA  0.688 ± 0.09
97. RFSPARPASPPP  0.687 ± 0.036
98. RRAESRNEKQHS  0.687 ± 0.017
99. RKTRKKNRIRGI  0.6857 ± 0.0054
100. RRHNPARSRARG  0.686 ± 0.053
101. RRSLKIQKNMKR  0.686 ± 0.083
102. RSPSFLRSFPAL  0.686 ± 0.016
103. RGSPPDPRGRAG  0.685 ± 0.074
104. RGDGAGQARGVV  0.684 ± 0.053
105. RGKSPPPSSPPL  0.684 ± 0.024
106. RGRGRVRPRRKR  0.6831 ± 0.0011
107. RLGWGGVGVAGV  0.683 ± 0.013
108. RSKDEKNKIGYK  0.683 ± 0.044
109. RPALRPSPPLSP  0.682 ± 0.056
110. RNTPTATHHTTG  0.681 ± 0.026
111. RPSHSPAFSAFF  0.681 ± 0.024
112. RLRGGVPGRTVG  0.68 ± 0.078
113. RMGQQISSVRLF  0.679 ± 0.0082
114. RKGFMQRHDTLD  0.6749 ± 0.0019
115. RKTHTRTQKRKL  0.675 ± 0.01
116. RIMFVGYPLDWL  0.674 ± 0.041
117. RLVAGETWAMSR  0.674 ± 0.0045
118. RKNHPEKKKKPN  0.673 ± 0.024
119. RPGRSDRCLRWS  0.673 ± 0.017
120. RGVGEGFRAGCG  0.672 ± 0.0098
121. RRIFTLIARRLW  0.672 ± 0.013
122. RSRRRFPPPPPI  0.672 ± 0.062
123. RGRWRVGWGVGD  0.67 ± 0.017
124. RKGVSLAILLGP  0.67 ± 0.055
125. RKKTQQKTQNIQ  0.67 ± 0.024
126. RLPASGTPAYSE  0.67 ± 0.02
127. RIPSDLTLNPRG  0.669 ± 0.05
128. RLPHCLRPPLSP  0.669 ± 0.069
129. RLTLAFQKRSPP  0.668 ± 0.1
130. RNHHPHHVPTSR  0.667 ± 0.03
131. RQCAACLGNPST  0.665 ± 0.1
132. RGPPPTSPPSPP  0.664 ± 0.013
133. RGWRYRAEGFRG  0.663 ± 0.022
134. RPCPGPLPPPPP  0.662 ± 0.013
135. RRPAQDAEPIQP  0.661 ± 0.067
136. RRSPYLPRILTP  0.661 ± 0.023
137. RGAHVTRPGTRD  0.66 ± 0.034
138. RLRPGGHPCVFF  0.66 ± 0.041
139. RRDIIMTKKTLH  0.658 ± 0.069
140. RGGGGGGGAAGS  0.657 ± 0.037
141. RIAARAIISRGG  0.657 ± 0.021
142. RRGRNGGKADLR  0.657 ± 0.0073
143. RKNIKYNTKNSI  0.654 ± 0.03
144. RLSRPPRIPRSQ  0.654 ± 0.0087
145. RRVKRGGARKEA  0.654 ± 0.019
146. RSCFLSLFFFGF  0.653 ± 0.036
147. RGWGGGRKVSVG  0.652 ± 0.036
148. RLGGRGRGSIHS  0.652 ± 0.022
149. RSHPRQSGLRTA  0.652 ± 0.039
150. RGARGIGVRLRV  0.651 ± 0.026
151. RGSVSCLQLIGC  0.651 ± 0.034
152. RQGGTMVRLLGY  0.651 ± 0.089
153. RSHPPPPVSRSP  0.651 ± 0.045
154. RPSPLPALASSL  0.65 ± 0.037
155. RQFRKKNTLKSE  0.65 ± 0.1
156. RNERNAKAKNEK  0.649 ± 0.012
157. RPAIPPATPPPP  0.649 ± 0.027
158. RGSYLAFRVYGP  0.648 ± 0.03
159. RKDNRRIMIKKR  0.648 ± 0.015
160. RKKKRKKKKTER  0.647 ± 0.041
161. RPHEAPTPGPVR  0.646 ± 0.013
162. RPPRNLDPSVSI  0.646 ± 0.13
163. RQKEVSISYCWI  0.646 ± 0.12
164. RGGWRVTNKKNI  0.645 ± 0.023
165. RGVVGFVGVVRE  0.6445 ± 0.0027
166. RLSPLTLPFCTS  0.645 ± 0.06
167. RRRSGAPVMRGS  0.645 ± 0.074
168. RKTKIKKLGRDK  0.644 ± 0.1
169. RQSITIAQPGRP  0.643 ± 0.014
170. RGEVWVEVALGV  0.642 ± 0.021
171. RRRMVYPLPPTL  0.641 ± 0.052
172. RLLRLLTALPPL  0.6387 ± 0.0026
173. RGALGVVWAGLD  0.638 ± 0.021
174. RRLVGEEGRTHV  0.638 ± 0.05
175. RLPLYAIPPFPP  0.636 ± 0.0091
176. RHVCPLLYPCSS  0.635 ± 0.036
177. RNRGPAIRVRRK  0.635 ± 0.089
178. RGRWLKNARLSM  0.634 ± 0.065
179. RGGAGRRWGRGK  0.631 ± 0.073
180. RLLFPTLTAYLL  0.63 ± 0.029
181. RMEGCRLSLGVP  0.63 ± 0.075
182. RRGTEGLGGGVG  0.6265 ± 0.0052
183. RFWGWCSAVLSS  0.622 ± 0.056
184. RLAVQCVCQIGI  0.621 ± 0.019
185. RPTTTQPPPTAS  0.62 ± 0.022
186. RRYWVLSTVPVL  0.615 ± 0.028
187. RLFHYPPPRHSY  0.61 ± 0.043
188. RGVCVVGGCWLV  0.609 ± 0.016
189. RGGGGRGFAGRK  0.608 ± 0.038
190. RGGGRGVWGHVV  0.607 ± 0.0063
191. RKKREKREKETN  0.598 ± 0.026
192. RPPPPASPPSAP  0.588 ± 0.076
193. RQIPAQAVKHVL  0.588 ± 0.02
194. RPHVLAHSLLLS  0.584 ± 0.011
195. RKKDHKSIIQII  0.57779 ± 0.00015
196. RPSPPPLRPFVL  0.576 ± 0.025
197. RSEIKKPIVIKT  0.576 ± 0.045
198. RRKSEYAYNTKN  0.565 ± 0.036
199. RGVIWLVCGGPC  0.54 ± 0.032
200. RLGVTVPLSGTV  0.5342 ± 0.00099
201. RGGGWVLEVLLG  0.5195 ± 0.0024
202. RLSPPGFRLGLF  0.517 ± 0.029
